Assays:
ProXp-ala WT [1] = biological target: T1, ProXp-ala WT (Caulobacter crescentus, UniProt Q9ABV9 1-168); test: EMSA; apparent, Hill fit; EMSA: 81 nM duplex annealed in 50 mM sodium phosphate pH 7.5, 150 mM NaCl, 0-114 μM protein, 1 h room temp, 16% native gel in TBE; NMR: same phosphate buffer, 1; settings: protein: recombinant, tags: N-terminal His6 removed by thrombin, leaves Gly-Ser-His, label: 3' 6FAM on strand 1
T1 sequence: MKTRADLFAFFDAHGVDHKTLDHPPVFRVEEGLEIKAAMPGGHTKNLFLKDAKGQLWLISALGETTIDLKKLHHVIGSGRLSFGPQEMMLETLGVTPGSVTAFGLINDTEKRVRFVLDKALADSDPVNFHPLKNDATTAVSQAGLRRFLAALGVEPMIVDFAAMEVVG

ProXp-ala WT [2] = biological target: T1, ProXp-ala WT; test: NMR; 100 μM each; indistinguishable from microhelixPro; EMSA: 81 nM duplex annealed in 50 mM sodium phosphate pH 7.5, 150 mM NaCl, 0-114 μM protein, 1 h room temp, 16% native gel in TBE; NMR: same phosphate buffer, 1; settings: protein: recombinant; tags: N-terminal His6 removed by thrombin; leaves Gly-Ser-His; hairpin; 12 bp stem, 3' ACCA single-stranded
ProXp-ala WT [3] = biological target: T1, ProXp-ala WT; test: NMR; 100 μM each; EMSA: 81 nM duplex annealed in 50 mM sodium phosphate pH 7.5, 150 mM NaCl, 0-114 μM protein, 1 h room temp, 16% native gel in TBE; NMR: same phosphate buffer, 1; settings: protein: recombinant; tags: N-terminal His6 removed by thrombin; leaves Gly-Ser-His; hairpin; 7 bp stem, 3' ACCA single-stranded

B1: duplexPro A76C (dsRNA)
RNA 1: CGGCGAGGGAGGUU
RNA 2: AUCCUCUCUCGCCGACCC
Question: How did the Kd (ProXp-ala WT [1]; 3' overhang 4 nt on strand 2) turn out when B1 was run?
Answer: 87 ± 4 µM

B2: duplexPro A76 (WT) (dsRNA)
RNA 1: CGGCGAGGGAGGUU
RNA 2: AUCCUCUCUCGCCGACCA
Question: For B2, which Kd (ProXp-ala WT [1]; 3' overhang 4 nt (ACCA) on strand 2) is on record?
Answer: 33 ± 11 µM

B3: duplexPro 3'pΔA76 (dsRNA)
RNA 1: CGGCGAGGGAGGUU
RNA 2: AUCCUCUCUCGCCGACC
modifications: 3' phosphate on terminal C of strand 2
Question: How did the Kd (ProXp-ala WT [1]; 3' overhang 3 nt on strand 2) turn out when B3 was run?
Answer: 63 ± 11 µM

B4: duplexPro A76G (dsRNA)
RNA 1: CGGCGAGGGAGGUU
RNA 2: AUCCUCUCUCGCCGACCG
Question: Which Kd (ProXp-ala WT [1]; 3' overhang 4 nt on strand 2) does the source give for B4 here?
Answer: 66 ± 11 µM

B5: duplexPro ΔA76 (dsRNA)
RNA 1: CGGCGAGGGAGGUU
RNA 2: AUCCUCUCUCGCCGACC
Question: B5 was tested. Which Kd (ProXp-ala WT [1]; 3' overhang 3 nt on strand 2) did it give?
Answer: 75 ± 12 µM

Question: Does CGGCGAGGGAGGUUCGAAUCCUCUCUCGCCGACCA (structured_RNA) [minihelixPro] bind (ProXp-ala WT [2])?
Answer: binds

Question: Does CGGCGAGUUCGCUCGCCGACCA (structured_RNA) [microhelixPro] bind (ProXp-ala WT [3])?
Answer: binds

B6: duplexPro dA76 (dsRNA)
RNA 1: CGGCGAGGGAGGUU
RNA 2: AUCCUCUCUCGCCGACCA
modifications: 2'-deoxy-A at 3' terminus of strand 2
Question: For B6, which Kd (ProXp-ala WT [1]; 3' overhang 4 nt on strand 2) is on record?
Answer: 34 ± 5 µM

B7: duplexPro A76U (dsRNA)
RNA 1: CGGCGAGGGAGGUU
RNA 2: AUCCUCUCUCGCCGACCU
Question: How did the Kd (ProXp-ala WT [1]; 3' overhang 4 nt on strand 2) turn out when B7 was run?
Answer: 106 ± 16 µM
